Experimental data published in patent US20240317834A1, “COMPOSITIONS AND METHODS FOR NEUROLOGICAL DISEASES” (CODA BIOTHERAPEUTICS, INC., priority 2020, published 2024).

Test system: Lenti-X 293T cells
Assay: YFP fluorescence quenching anion reporter plate reader assay of engineered receptors stimulated with acetylcholine or a non-native ligand
Assay type: cell-based
Conditions: for percent quench of YFP fluorescence, 30 nM TC-6683: TC-6683 30 nM; for percent quench of YFP fluorescence, 300 nM TC-6683: TC-6683 300 nM; for percent quench of YFP fluorescence, 3 uM TC-6683: TC-6683 3 uM; for percent quench of YFP fluorescence, 30 uM TC-6683: TC-6683 30 uM; for percent quench of YFP fluorescence, 100 uM TC-6683: TC-6683 100 uM; for percent quench of YFP fluorescence, 10 uM ach: acetylcholine 10 uM; for percent quench of YFP fluorescence, 100 uM ach: acetylcholine 100 uM; for percent quench of YFP fluorescence, 1 mM ach: acetylcholine 1 mM; for percent quench of YFP fluorescence, 3 mM ach: acetylcholine 3 mM
Outline: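 Lenti-X 293T cells carrying a YFP anion reporter were transiently transfected with channel DNA and assayed the next day in HEPES-buffered ECS at pH 7.2. Ligand (acetylcholine or non-native ligand) was added in NaI-substituted ECS. Percent quench was the mean of the last 10 s relative to the 15 s pre-addition baseline.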

B1: CODA334: engineered chimeric LGIC receptor, L131Q in SEQ ID NO: 33 (protein)
chain: MRCSPGGVWLALAASLLHVSLQGEFQRKLYKELVKNYNPLERPVANDSQPLTVYFSLSLLQIMDVDEKNQVLTTNIWLQMSWTDHYLQWNVSEYPGVKTVRFPDGQIWKPDILLYNSADERFDATFHTNVQVNSSGHCQYLPPGIFKSSCPMDLKNFPMDVQTCKLKFGSWSYGGWSLDLQMQEADISGYIPNGEWDLVGIPGKRSERFYECCKEPYPDVTFTVTMRRRMGYYLIQMYIPSLLIVILSWISFWINMDAAPARVGLGITTVLTMTTQSSGSRASLPKVSYVKAIDIWMAVCLLFVFSALLEYAAVNFVSRQHKELLRFRRKRRHHKSPMLNLFQEDEAGEGRFNFSAYGMGPACLQAKDGISVKGANNSNTTNPPPAPSKSPEEMRKLFIQRAKKIDKISRIGFPMAFLIFNMFYWIIYKIVRREDVHNQ
modifications: synthetic sequence of chimeric LGIC
With B1 the “YFP fluorescence quenching using CNL001” value (1 nM CNL001, first column) was 76.165%, the “YFP fluorescence quenching using CNL001” value (1 nM CNL001, second column) was 78.463% and the “YFP fluorescence quenching using TC-5619/Bradanicline” value (3 nM brd) was 41.92%. For the same molecule, the “YFP fluorescence quenching using Varenicline” value (3 nM var, first column) was −5.192, the “YFP fluorescence quenching using Varenicline” value (3 nM var, second column) was −4.327 and the “YFP fluorescence quenching using CNL001” value (10 nM CNL001, first column) was 79.349%. For the same molecule, the “YFP fluorescence quenching using CNL001” value (10 nM CNL001, second column) was 78.238%, the “YFP fluorescence quenching using TC-5619/Bradanicline” value (30 nM brd) was 63.65% and the “YFP fluorescence quenching using Facinicline” value (30 nM fac) was 83.07. For the same molecule, the “YFP fluorescence quenching using Varenicline” value (30 nM var, first column) was −0.688, the “YFP fluorescence quenching using Varenicline” value (30 nM var, second column) was 0.672 and the “YFP fluorescence quenching using CNL001” value (50 nM CNL001, first column) was 80.221%. The “YFP fluorescence quenching using CNL001” value (50 nM CNL001, second column) was 81.789%, the “YFP fluorescence quenching using ABT-126” value (50 nM abt) was 23.65% and the “YFP fluorescence quenching using CNL001” value (100 nM CNL001, first column) was 82%. The “YFP fluorescence quenching using CNL001” value (100 nM CNL001, second column) was 80.766%, the “YFP fluorescence quenching using CNL002” value (100 nM CNL002) was 49.9% and the “YFP fluorescence quenching using ABT-126” value (100 nM abt) was 61.83%. The “YFP fluorescence quenching using AZD-0328” value (100 nM azd0328) was 80.55%, the “YFP fluorescence quenching using Facinicline” value (100 nM fac) was 85.36 and the “YFP fluorescence quenching using ABT-126” value (300 nM abt) was 76.44%. The “YFP fluorescence quenching using AZD-0328” value (300 nM azd0328) was 83.15%, the “YFP fluorescence quenching using TC-5619/Bradanicline” value (300 nM brd) was 64.85% and the “YFP fluorescence quenching using Facinicline” value (300 nM fac) was 84.19. The “YFP fluorescence quenching using Varenicline” value (300 nM var, first column) was 75.189, the “YFP fluorescence quenching using Varenicline” value (300 nM var, second column) was 74.923 and the “YFP fluorescence quenching using Varenicline” value (500 nM var, first column) was 79.048. The “YFP fluorescence quenching using Varenicline” value (500 nM var, second column) was 80.337, the “YFP fluorescence quenching using CNL001” value (1 uM CNL001, first column) was 81.707% and the “YFP fluorescence quenching using CNL001” value (1 uM CNL001, second column) was 82.665%. The “YFP fluorescence quenching using CNL002” value (1 uM CNL002) was 80.72%, the “YFP fluorescence quenching using ABT-126” value (1 uM abt) was 77.68% and the “YFP fluorescence quenching using TC-6987” value (1 uM tc6987) was 74.1. The “YFP fluorescence quenching using Varenicline” value (1 uM var, first column) was 79.766, the “YFP fluorescence quenching using Varenicline” value (1 uM var, second column) was 76.836 and the “YFP fluorescence quenching using TC-6987” value (10 uM tc6987) was 81.7. For the same molecule, the “YFP fluorescence quenching using CNL002” value (30 uM CNL002) was 80.97%, the “YFP fluorescence quenching using AZD-0328” value (30 uM azd0328) was 82.53% and the “YFP fluorescence quenching using Facinicline” value (30 uM fac) was 82.75. The “YFP fluorescence quenching using TC-6987” value (500 uM tc6987) was 80.18, the “percent quench of YFP fluorescence, 30 nM TC-6683” value was −17.99% and the “percent quench of YFP fluorescence, 300 nM TC-6683” value was −23.26%. For the same molecule, the “percent quench of YFP fluorescence, 3 uM TC-6683” value was −18.84%, the “percent quench of YFP fluorescence, 30 uM TC-6683” value was −16.92% and the “percent quench of YFP fluorescence, 100 uM TC-6683” value was −15.59%. For the same molecule, the “percent quench of YFP fluorescence, 10 uM ach” value was −2.63%, the “percent quench of YFP fluorescence, 30 uM ach” value (acetylcholine 30 uM) was 30.06% and the “percent quench of YFP fluorescence, 100 uM ach” value was 71.27%. The “percent quench of YFP fluorescence, 1 mM ach” value was 79.66% and the “percent quench of YFP fluorescence, 3 mM ach” value was 74.9%.

B2: CODA335: engineered chimeric LGIC receptor, L131T in SEQ ID NO: 33 (protein)
chain: MRCSPGGVWLALAASLLHVSLQGEFQRKLYKELVKNYNPLERPVANDSQPLTVYFSLSLLQIMDVDEKNQVLTTNIWLQMSWTDHYLQWNVSEYPGVKTVRFPDGQIWKPDILLYNSADERFDATFHTNVTVNSSGHCQYLPPGIFKSSCPMDLKNFPMDVQTCKLKFGSWSYGGWSLDLQMQEADISGYIPNGEWDLVGIPGKRSERFYECCKEPYPDVTFTVTMRRRMGYYLIQMYIPSLLIVILSWISFWINMDAAPARVGLGITTVLTMTTQSSGSRASLPKVSYVKAIDIWMAVCLLFVFSALLEYAAVNFVSRQHKELLRFRRKRRHHKSPMLNLFQEDEAGEGRFNFSAYGMGPACLQAKDGISVKGANNSNTTNPPPAPSKSPEEMRKLFIQRAKKIDKISRIGFPMAFLIFNMFYWIIYKIVRREDVHNQ
modifications: synthetic sequence of chimeric LGIC
With B2 the “YFP fluorescence quenching using CNL001” value (1 nM CNL001, first column) was −9.942%, the “YFP fluorescence quenching using CNL001” value (1 nM CNL001, second column) was −0.475% and the “YFP fluorescence quenching using TC-5619/Bradanicline” value (1 nM brd) was −2.39%. For the same molecule, the “YFP fluorescence quenching using TC-5619/Bradanicline” value (3 nM brd) was −4.08%, the “YFP fluorescence quenching using Varenicline” value (3 nM var, first column) was 0.398 and the “YFP fluorescence quenching using Varenicline” value (3 nM var, second column) was 3.947. The “YFP fluorescence quenching using CNL001” value (10 nM CNL001, first column) was 17.889%, the “YFP fluorescence quenching using CNL001” value (10 nM CNL001, second column) was 38.46% and the “YFP fluorescence quenching using TC-5619/Bradanicline” value (10 nM brd) was −3.3%. The “YFP fluorescence quenching using TC-5619/Bradanicline” value (30 nM brd) was −9.69%, the “YFP fluorescence quenching using Facinicline” value (30 nM fac) was 1.24 and the “YFP fluorescence quenching using Varenicline” value (30 nM var, first column) was 5.31. The “YFP fluorescence quenching using Varenicline” value (30 nM var, second column) was 7.666, the “YFP fluorescence quenching using CNL001” value (50 nM CNL001, first column) was 61.741% and the “YFP fluorescence quenching using CNL001” value (50 nM CNL001, second column) was 69.159%. For the same molecule, the “YFP fluorescence quenching using ABT-126” value (50 nM abt) was −18%, the “YFP fluorescence quenching using CNL001” value (100 nM CNL001, first column) was 73.635% and the “YFP fluorescence quenching using CNL001” value (100 nM CNL001, second column) was 76.092%. For the same molecule, the “YFP fluorescence quenching using CNL002” value (100 nM CNL002) was −14.53%, the “YFP fluorescence quenching using ABT-126” value (100 nM abt) was −16.39% and the “YFP fluorescence quenching using AZD-0328” value (100 nM azd0328) was 11.33%. For the same molecule, the “YFP fluorescence quenching using TC-5619/Bradanicline” value (100 nM brd) was −1.05%, the “YFP fluorescence quenching using ABT-126” value (300 nM abt) was −15.05% and the “YFP fluorescence quenching using AZD-0328” value (300 nM azd0328) was 44.15%. The “YFP fluorescence quenching using TC-5619/Bradanicline” value (300 nM brd) was 10.53%, the “YFP fluorescence quenching using Facinicline” value (300 nM fac) was 46.92 and the “YFP fluorescence quenching using Varenicline” value (300 nM var, first column) was 4.327. For the same molecule, the “YFP fluorescence quenching using Varenicline” value (300 nM var, second column) was 3.275, the “YFP fluorescence quenching using Varenicline” value (500 nM var, first column) was 1.835 and the “YFP fluorescence quenching using Varenicline” value (500 nM var, second column) was 4.863. For the same molecule, the “YFP fluorescence quenching using CNL001” value (1 uM CNL001, first column) was 80.633%, the “YFP fluorescence quenching using CNL001” value (1 uM CNL001, second column) was 79.637% and the “YFP fluorescence quenching using CNL002” value (1 uM CNL002) was 6.45%. For the same molecule, the “YFP fluorescence quenching using ABT-126” value (1 uM abt) was −5.56%, the “YFP fluorescence quenching using TC-5619/Bradanicline” value (1 uM brd) was 34.72% and the “YFP fluorescence quenching using TC-6987” value (1 uM tc6987) was −0.14. For the same molecule, the “YFP fluorescence quenching using Varenicline” value (1 uM var, first column) was 9.471, the “YFP fluorescence quenching using Varenicline” value (1 uM var, second column) was 7.505 and the “YFP fluorescence quenching using TC-6987” value (3 uM tc6987) was −8.32. For the same molecule, the “YFP fluorescence quenching using TC-6987” value (5 uM tc6987) was −2.13, the “YFP fluorescence quenching using Facinicline” value (10 uM fac) was 79.06 and the “YFP fluorescence quenching using TC-6987” value (10 uM tc6987) was 0.13. For the same molecule, the “YFP fluorescence quenching using CNL002” value (30 uM CNL002) was 57.43%, the “YFP fluorescence quenching using AZD-0328” value (30 uM azd0328) was 80.96% and the “YFP fluorescence quenching using Facinicline” value (30 uM fac) was 81.06. The “YFP fluorescence quenching using TC-6987” value (30 uM tc6987) was −6.86, the “YFP fluorescence quenching using TC-6987” value (50 uM tc6987) was −9.5 and the “YFP fluorescence quenching using TC-6987” value (100 uM tc6987) was −10.98. The “YFP fluorescence quenching using TC-6987” value (300 uM tc6987) was −12.16, the “YFP fluorescence quenching using TC-6987” value (500 uM tc6987) was −2.41 and the “percent quench of YFP fluorescence, 30 nM TC-6683” value was −13.84%. The “percent quench of YFP fluorescence, 300 nM TC-6683” value was −20.66%, the “percent quench of YFP fluorescence, 3 uM TC-6683” value was −17.86% and the “percent quench of YFP fluorescence, 30 uM TC-6683” value was −18.91%. The “percent quench of YFP fluorescence, 100 uM TC-6683” value was −16.88%, the “percent quench of YFP fluorescence, 10 uM ach” value was −9.13% and the “percent quench of YFP fluorescence, 100 uM ach” value was −9.29%. The “percent quench of YFP fluorescence, 1 mM ach” value was 0.57% and the “percent quench of YFP fluorescence, 3 mM ach” value was 35.37%.
